Here are results for one molecule from paper PMC4057743, “Arabidopsis ABA Receptor RCAR1/PYL9 Interacts with an R2R3-Type MYB Transcription Factor, AtMYB44” (International Journal of Molecular Sciences, 2014).

The target in the assay is T1, His-ABI1 (Arabidopsis, UniProt P49597 1-434).
T1 construct: ABI1, type 2C protein phosphatase (PP2C), Arabidopsis; ORF subcloned into pET28a via BamH I and Hind III sites; source: Escherichia coli, purified
T1 sequence (looked up): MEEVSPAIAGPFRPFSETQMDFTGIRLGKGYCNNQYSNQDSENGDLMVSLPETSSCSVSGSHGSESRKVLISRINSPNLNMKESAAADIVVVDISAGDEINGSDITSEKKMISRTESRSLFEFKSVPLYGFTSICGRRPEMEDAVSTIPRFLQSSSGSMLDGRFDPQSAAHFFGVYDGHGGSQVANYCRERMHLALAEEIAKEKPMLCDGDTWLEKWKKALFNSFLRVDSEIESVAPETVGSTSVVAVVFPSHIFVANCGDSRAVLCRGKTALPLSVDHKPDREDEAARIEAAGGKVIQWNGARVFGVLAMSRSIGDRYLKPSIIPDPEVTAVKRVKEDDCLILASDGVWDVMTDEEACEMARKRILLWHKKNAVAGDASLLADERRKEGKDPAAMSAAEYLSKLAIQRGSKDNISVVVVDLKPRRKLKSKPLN
Briefly: pull-down; competitive: 5 μg His-RCAR1/PYL9 with 0, 5 or 25 μg His-ABI1 or 25 μg His protein on immobilized GST-AtMYB44 (5 μg); 50 mM Tris-HCl pH 7.5, 100 mM NaCl, 1 mM EDTA, 0.05% β-mercaptoethanol, 0.2% Triton X-100, 10 mM MgCl2; 4 °C, 2 h; 10 μM ABA when indicated; anti-His blot. To be noted: both partners purified.

B1: His-RCAR1/PYL9 (receptor, Arabidopsis, UniProt Q84MC7 1-187, looked up)
chain: MMDGVEGGTAMYGGLETVQYVRTHHQHLCRENQCTSALVKHIKAPLHLVWSLVRRFDQPQKYKPFVSRCTVIGDPEIGSLREVNVKSGLPATTSTERLELLDDEEHILGIKIIGGDHRLKNYSSILTVHPEIIEGRAGTMVIESFVVDVPQGNTKDETCYFVEALIRCNLKSLADVSERLASQDITQ
notes: ABA receptor RCAR1/PYL9, Arabidopsis; ORF subcloned into pET28a via EcoR I and Xho I sites; source: Escherichia coli, purified
Turning to B1, the binding result was “binds”.
